Test results taken from the supplement of paper PMC9112550, “Optimization of the antimicrobial peptide Bac7 by deep mutational scanning” (BMC Biology, 2022).

system: Escherichia coli TOP10; test: shrunken log2 fold change of peptide-encoding DNA abundance (4.5 h post-induction vs induction); higher = less antimicrobial activity (less host growth inhibition); conditions: time post-induction: 4.5 h; library: site-saturation at positions 5, 18, 19, 20
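Also: peptides expressed intracellularly from a pBAD plasmid library in pooled LB shake-flask culture, induced with 0.3% L-arabinose, DNA abundance read by NGS, three biological replicates, DESeq2 with apeglm shrinkage.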

Sequence	shrunken log2 fold change
RRIRHRPPRLPRPRPRPLQPPRP	0.157
RRIRERPPRLPRPRPRPTLWPRP	0.364
RRIRSRPPRLPRPRPRPGTDPRP	-0.0659
RRIRSRPPRLPRPRPRPLNMPRP	-0.316
RRIRKRPPRLPRPRPRPSWHPRP	-0.0776
RRIRIRPPRLPRPRPRPVPTPRP	0.0576
RRIRPRPPRLPRPRPRPCTVPRP	0.0392
RRIRLRPPRLPRPRPRPKVVPRP	-0.0761
RRIRHRPPRLPRPRPRPDHLPRP	-0.0237
RRIRTRPPRLPRPRPRPCFYPRP	-0.351
RRIRGRPPRLPRPRPRPSYAPRP	0.316
RRIRQRPPRLPRPRPRPREPPRP	0.0406
RRIRRRPPRLPRPRPRPNSDPRP	-0.17
RRIRPRPPRLPRPRPRPNDSPRP	-0.442
RRIRPRPPRLPRPRPRPGKHPRP	-0.141
RRIRYRPPRLPRPRPRPGHWPRP	-0.135
RRIRPRPPRLPRPRPRPVANPRP	0.495
RRIRVRPPRLPRPRPRPMMKPRP	0.168
RRIRTRPPRLPRPRPRPNMCPRP	0.00985
RRIRSRPPRLPRPRPRPNPVPRP	-0.0484
RRIRNRPPRLPRPRPRPWDEPRP	0.0165
RRIRARPPRLPRPRPRPKEWPRP	1.16
RRIRARPPRLPRPRPRPIFKPRP	-0.0373
RRIRWRPPRLPRPRPRPFFFPRP	0.253
RRIRARPPRLPRPRPRPIAFPRP	0.222

Sequence	shrunken log2 fold change
RRIRSRPPRLPRPRPRPDFSPRP	0.0706
RRIRHRPPRLPRPRPRPKDGPRP	0.326
RRIRPRPPRLPRPRPRPEWDPRP	0.269
RRIRSRPPRLPRPRPRPMHYPRP	-0.224
RRIRMRPPRLPRPRPRPRCRPRP	0.619
RRIRWRPPRLPRPRPRPFAPPRP	0.505
RRIRHRPPRLPRPRPRPFFFPRP	0.123
RRIRMRPPRLPRPRPRPMLCPRP	0.049
RRIRWRPPRLPRPRPRPCIHPRP	-0.0458
RRIRNRPPRLPRPRPRPKDLPRP	-0.0125
RRIRFRPPRLPRPRPRPVKNPRP	-0.0401
RRIRRRPPRLPRPRPRPHDKPRP	0.302
RRIRHRPPRLPRPRPRPGCQPRP	0.0291
RRIRQRPPRLPRPRPRPTKVPRP	-0.0676
RRIRRRPPRLPRPRPRPVGAPRP	0.592
RRIRDRPPRLPRPRPRPLIQPRP	0.365
RRIRWRPPRLPRPRPRPHVEPRP	-0.042
RRIRRRPPRLPRPRPRPGIVPRP	-0.0478
RRIRARPPRLPRPRPRPDKQPRP	-0.0794
RRIRSRPPRLPRPRPRPEPSPRP	0.859
RRIRMRPPRLPRPRPRPYERPRP	-0.0671
RRIRDRPPRLPRPRPRPTPLPRP	0.484
RRIRGRPPRLPRPRPRPVHAPRP	0.743
RRIRRRPPRLPRPRPRPDAVPRP	0.462
RRIRERPPRLPRPRPRPEYYPRP	-0.00813

Sequence	shrunken log2 fold change
RRIRGRPPRLPRPRPRPWSNPRP	-0.116
RRIRHRPPRLPRPRPRPSFQPRP	-0.652
RRIRHRPPRLPRPRPRPCASPRP	-0.028
RRIRSRPPRLPRPRPRPNCHPRP	-0.316
RRIRQRPPRLPRPRPRPAFYPRP	-0.0263
RRIRHRPPRLPRPRPRPIYHPRP	-0.0782
RRIRIRPPRLPRPRPRPEMPPRP	0.0112
RRIRNRPPRLPRPRPRPGNEPRP	-0.223
RRIRTRPPRLPRPRPRPADLPRP	0.0274
RRIRIRPPRLPRPRPRPQWVPRP	-0.023
RRIRYRPPRLPRPRPRPHHKPRP	-0.319
RRIRWRPPRLPRPRPRPPGTPRP	0.475
RRIRPRPPRLPRPRPRPEHAPRP	0.197
RRIRKRPPRLPRPRPRPHYQPRP	-0.101
RRIRVRPPRLPRPRPRPGLRPRP	0.663
RRIRGRPPRLPRPRPRPIFFPRP	0.237
RRIRMRPPRLPRPRPRPMFAPRP	0.304
RRIRKRPPRLPRPRPRPNNRPRP	0.0938
RRIRGRPPRLPRPRPRPDQLPRP	0.719
RRIRHRPPRLPRPRPRPIHWPRP	-0.0298
RRIRARPPRLPRPRPRPLNPPRP	-0.111
RRIRHRPPRLPRPRPRPPYLPRP	-0.321
RRIRVRPPRLPRPRPRPMMTPRP	0.0496
RRIRFRPPRLPRPRPRPGFLPRP	-0.296
RRIRHRPPRLPRPRPRPINSPRP	-0.404

Sequence	shrunken log2 fold change
RRIRHRPPRLPRPRPRPNRPPRP	-0.022
RRIRQRPPRLPRPRPRPNLHPRP	-0.255
RRIRFRPPRLPRPRPRPCQFPRP	-0.227
RRIRDRPPRLPRPRPRPRMVPRP	-0.177
RRIRPRPPRLPRPRPRPELEPRP	0.219
RRIRVRPPRLPRPRPRPIQTPRP	-0.0164
RRIRQRPPRLPRPRPRPLGFPRP	0.0916
RRIRQRPPRLPRPRPRPICRPRP	0.0232
RRIRDRPPRLPRPRPRPPLYPRP	0.0303
RRIRHRPPRLPRPRPRPSDIPRP	-0.978
RRIRVRPPRLPRPRPRPAPYPRP	-0.00665
RRIRSRPPRLPRPRPRPLSSPRP	-0.329
RRIRFRPPRLPRPRPRPDDSPRP	-0.154
RRIRARPPRLPRPRPRPLPIPRP	0.205
RRIRRRPPRLPRPRPRPCLEPRP	0.11
RRIRGRPPRLPRPRPRPNNPPRP	-0.171
RRIRIRPPRLPRPRPRPTDQPRP	-0.51
RRIRARPPRLPRPRPRPRERPRP	0.334
RRIRLRPPRLPRPRPRPNCDPRP	-0.00298
RRIRYRPPRLPRPRPRPHGFPRP	0.0238
RRIRGRPPRLPRPRPRPQPNPRP	0.679
RRIRPRPPRLPRPRPRPVIIPRP	-0.286
RRIRNRPPRLPRPRPRPHWFPRP	-0.318
RRIRARPPRLPRPRPRPGASPRP	0.978
RRIRNRPPRLPRPRPRPMDPPRP	-0.0437

Sequence	shrunken log2 fold change
RRIRERPPRLPRPRPRPEEMPRP	0.0169
RRIRIRPPRLPRPRPRPSWMPRP	-0.562
RRIRPRPPRLPRPRPRPHLAPRP	0.0568
RRIRQRPPRLPRPRPRPWSMPRP	-0.0469
RRIRHRPPRLPRPRPRPLDIPRP	-0.105
RRIRSRPPRLPRPRPRPRKWPRP	0.139
RRIRGRPPRLPRPRPRPNRKPRP	0.195
RRIRSRPPRLPRPRPRPEMSPRP	0.259
RRIRHRPPRLPRPRPRPHMAPRP	-0.0236
RRIRWRPPRLPRPRPRPDKGPRP	0.0389
RRIRGRPPRLPRPRPRPSRSPRP	0.253
RRIRIRPPRLPRPRPRPKRIPRP	0.0468
RRIRMRPPRLPRPRPRPDWIPRP	-0.017
RRIRRRPPRLPRPRPRPVGHPRP	0.0496
RRIRQRPPRLPRPRPRPTQRPRP	0.548
RRIRHRPPRLPRPRPRPCQYPRP	0.0163
RRIRSRPPRLPRPRPRPVVYPRP	-0.0697
RRIRARPPRLPRPRPRPCKYPRP	-0.201
RRIRVRPPRLPRPRPRPGHYPRP	-0.125
RRIRWRPPRLPRPRPRPGVGPRP	1.27
RRIRLRPPRLPRPRPRPCPIPRP	-0.335
RRIRHRPPRLPRPRPRPWCTPRP	-0.11
RRIRYRPPRLPRPRPRPIWIPRP	-0.0319
RRIRTRPPRLPRPRPRPVPDPRP	-0.0687
RRIRHRPPRLPRPRPRPPWMPRP	0.197

Sequence	shrunken log2 fold change
RRIRYRPPRLPRPRPRPIICPRP	-0.185
RRIRVRPPRLPRPRPRPNNIPRP	-0.937
RRIRNRPPRLPRPRPRPYNPPRP	-0.299
RRIRHRPPRLPRPRPRPMQFPRP	0.00869
RRIRTRPPRLPRPRPRPPMCPRP	0.0176
RRIRRRPPRLPRPRPRPTQNPRP	1.03
RRIRWRPPRLPRPRPRPWELPRP	-0.0481
RRIRIRPPRLPRPRPRPWEMPRP	0.177
RRIRGRPPRLPRPRPRPTSQPRP	0.87
RRIRHRPPRLPRPRPRPCTQPRP	-0.367
RRIRRRPPRLPRPRPRPLEYPRP	-0.326
RRIRDRPPRLPRPRPRPECLPRP	0.0572
RRIRKRPPRLPRPRPRPYMHPRP	-0.0355
RRIRGRPPRLPRPRPRPKKSPRP	0.834
RRIRLRPPRLPRPRPRPPVSPRP	0.11
RRIRCRPPRLPRPRPRPIYIPRP	-0.43
RRIRGRPPRLPRPRPRPQIQPRP	0.0796
RRIRKRPPRLPRPRPRPLHDPRP	0.169
RRIRWRPPRLPRPRPRPKMWPRP	0.737
RRIRFRPPRLPRPRPRPIQHPRP	-0.196
RRIRWRPPRLPRPRPRPWGPPRP	0.384
RRIRCRPPRLPRPRPRPCTRPRP	-0.321
RRIRVRPPRLPRPRPRPYIIPRP	-0.519
RRIRMRPPRLPRPRPRPFCTPRP	-0.0819
RRIRARPPRLPRPRPRPSQKPRP	0.106
